Earlier results as cited in PMC9079180.

Target: tau (Homo sapiens)

Chain of Hsp70 (P0A6Z0 2-638): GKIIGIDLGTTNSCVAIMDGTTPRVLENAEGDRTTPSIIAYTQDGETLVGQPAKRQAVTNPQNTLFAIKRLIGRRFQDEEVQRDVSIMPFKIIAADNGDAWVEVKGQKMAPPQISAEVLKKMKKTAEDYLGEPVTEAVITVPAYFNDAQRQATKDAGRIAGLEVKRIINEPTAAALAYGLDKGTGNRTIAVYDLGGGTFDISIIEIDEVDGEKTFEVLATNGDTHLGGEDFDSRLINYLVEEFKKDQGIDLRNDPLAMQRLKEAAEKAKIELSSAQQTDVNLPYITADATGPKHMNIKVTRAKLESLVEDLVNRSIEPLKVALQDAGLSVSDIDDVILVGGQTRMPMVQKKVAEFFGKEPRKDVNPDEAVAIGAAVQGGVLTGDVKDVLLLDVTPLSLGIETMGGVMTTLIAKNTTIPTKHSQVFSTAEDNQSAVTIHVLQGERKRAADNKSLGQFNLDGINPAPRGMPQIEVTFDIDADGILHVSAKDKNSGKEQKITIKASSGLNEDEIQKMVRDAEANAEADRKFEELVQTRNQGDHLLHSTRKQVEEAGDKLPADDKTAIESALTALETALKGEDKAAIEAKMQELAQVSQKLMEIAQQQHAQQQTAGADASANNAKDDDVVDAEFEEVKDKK

Hsp70 (from UniProt P0A6Z0)
Kd: 400 nM
